# Measured values: patent US20160130347A1 (Hoffmann-La Roche, published 2016)
# Changes are numbered by the printed parent chain.
# T1: human MCSP(D3 domain)-avi-his (human, UniProt Q6UVK1 1587-2221, limits assumed)
# T1 construct: domain: D3 domain; also called hu-MCSP(D3 domain)-avi-his
# T1 sequence (looked up): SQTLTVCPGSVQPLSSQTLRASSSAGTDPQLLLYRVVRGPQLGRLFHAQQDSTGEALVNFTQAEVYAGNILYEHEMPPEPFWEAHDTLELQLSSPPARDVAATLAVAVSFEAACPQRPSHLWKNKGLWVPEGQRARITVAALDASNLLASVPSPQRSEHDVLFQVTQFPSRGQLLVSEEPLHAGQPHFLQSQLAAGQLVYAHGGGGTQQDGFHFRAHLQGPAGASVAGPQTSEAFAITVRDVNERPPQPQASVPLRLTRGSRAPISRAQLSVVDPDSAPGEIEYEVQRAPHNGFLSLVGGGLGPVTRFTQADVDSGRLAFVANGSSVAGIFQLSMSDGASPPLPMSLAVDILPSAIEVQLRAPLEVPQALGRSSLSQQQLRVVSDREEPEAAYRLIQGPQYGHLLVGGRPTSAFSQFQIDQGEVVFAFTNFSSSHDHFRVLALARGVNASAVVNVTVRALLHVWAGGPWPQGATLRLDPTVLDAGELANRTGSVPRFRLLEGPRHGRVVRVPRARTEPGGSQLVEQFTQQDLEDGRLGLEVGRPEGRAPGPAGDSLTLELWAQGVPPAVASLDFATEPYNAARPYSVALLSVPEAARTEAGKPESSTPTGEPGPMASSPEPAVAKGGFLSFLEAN
# B1: hu Fab (MCSP)-Crossfab (CD3) (bispecific antibody)
# chain 1: EVQLQESGPGLVKPSQSLSLTCSVTGYSITSGYYWNWIRQFPGNKLEWMGYITYDGSNNYNPSLKNRISITRDTSKNQFFLKLNSVTTEDTATYYCADFDYWGQGTTLTVSSASTKGPSVFPLAPSSKSTSGGTAALGCLVKDYFPEPVTVSWNSGALTSGVHTFPAVLQSSGLYSLSSVVTVPSSSLGTQTYICNVNHKPSNTKVDKKVEPKSCDGGGGSGGGGSDIQMTQSPSSLSASVGDRVTITCRASQDIRNYLNWYQQKPGKAPKLLIYYTSRLESGVPSRFSGSGSGTDYTLTISSLQPEDFATYYCQQGNTLPWTFGQGTKVEIKSSASTKGPSVFPLAPSSKSTSGGTAALGCLVKDYFPEPVTVSWNSGALTSGVHTFPAVLQSSGLYSLSSVVTVPSSSLGTQTYICNVNHKPSNTKVDKKVEPKSC
# light: DIVLTQSPSSLSASLGDRVTISCSASQGIRNYLNWYQQRPDGTVKLLIYYTSSLHSGVPSRFSGSGSGTDYSLTISNLEPEDIATYYCQQYSKLPWTFGGGTKLEIKRTVAAPSVFIFPPSDEQLKSGTASVVCLLNNFYPREAKVQWKVDNALQSGNSQESVTEQDSKDSTYSLSSTLTLSKADYEKHKVYACEVTHQGLSSPVTKSFNRGEC
# chain 2: EVQLVESGGGLVQPGGSLRLSCAASGYSFTGYTMNWVRQAPGKGLEWVALINPYKGVSTYNQKFKDRFTISVDKSKNTAYLQMNSLRAEDTAVYYCARSGYYGDSDWYFDVWGQGTLVTVSSASVAAPSVFIFPPSDEQLKSGTASVVCLLNNFYPREAKVQWKVDNALQSGNSQESVTEQDSKDSTYSLSSTLTLSKADYEKHKVYACEVTHQGLSSPVTKSFNRGEC
# B2: hu Fab (MCSP)=Crossfab (CD3) (bispecific antibody)
# chain 1: B1 chain 1
# chain 2: EVQLVESGGGLVQPGGSLRLSCAASGYSFTGYTMNWVRQAPGKGLEWVALINPYKGVSTYNQKFKDRFTISVDKSKNTAYLQMNSLRAEDTAVYYCARSGYYGDSDWYFDVWGQGTLVTVSSASVAAPSVFIFPPSDEQLKSGTASVVCLLNNFYPREAKVQWKVDNALQSGNSQESVTEQDSKDSTYSLSSTLTLSKADYEKHKVYACEVTHQGLSSPVTKSFNRGECDGGGGSGGGGSDIVLTQSPSSLSASLGDRVTISCSASQGIRNYLNWYQQRPDGTVKLLIYYTSSLHSGVPSRFSGSGSGTDYSLTISNLEPEDIATYYCQQYSKLPWTFGGGTKLEIKRTVAAPSVFIFPPSDEQLKSGTASVVCLLNNFYPREAKVQWKVDNALQSGNSQESVTEQDSKDSTYSLSSTLTLSKADYEKHKVYACEVTHQGLSSPVTKSFNRGEC
# B3: M4-3(A7)/ML2 IgG (antibody, V domains shown)
# VH: QVQLQESGPGLVKPSQTLSLTCTVSGGSITDGYYWNWIRQHPGKGLEWIGYITFDGRNNYNPSLKSRVTISRDTSKNQFSLKLSSVTAADTAVYYCADFDYWGQGTLVTVSS
# VL: DIQMTQSPSSLSASVGDRVTITCRASQGIRNYLNWYQQKPGKAPKLLIYYTSSLHSGVPSRFSGSGSGTDFTLTISSLQPEDFATYYCQQYSKLPWTFGQGTKVEIK
# notes: Human IgG1 format
# B4: M4-3(C1)/ML2(G3) IgG (antibody, V domains shown)
# VH: B3 VH with D31S, R57S
# VL: DIQMTQSPSSLSASVGDRVTITCRASQGIRNYLNWYQQKPGKAPKLLIYYTSSLHSGVPSRFSGSGSGTDYTLTISSLQPEDFATYYCQQYSALPWTFGQGTKVEIKR
# notes: Human IgG1; also called MCSP M4-3(C1)ML2(G3)
# B5: M4-3(C1)/ML2(E10) IgG (antibody, V domains shown)
# VH: B3 VH with D31S, R57S
# VL: B3 VL with Q27Y, N31G, Y87H
# notes: Human IgG1 format
# B6: M4-3(C1)/ML2(C5) IgG (antibody, V domains shown)
# VH: B3 VH with D31S, R57S
# VL: B3 VL with Q27R, N31E, S52G, K93E
# notes: Human IgG1 format
# B7: M4-3/ML2 (E10) IgG (antibody, V domains shown)
# VH: B3 VH with D31S, F54Y, R57S
# VL: B3 VL with Q27Y, N31G, Y87H
# notes: Human IgG1 format
# B8: M4-3(A7)/ML2(C5) IgG (antibody, V domains shown)
# VH: B3 VH
# VL: B3 VL with Q27R, N31E, S52G, K93E
# notes: Human IgG1 format
# B9: M4-3/ML2 (C5/G3) IgG (antibody, V domains shown)
# VH: B3 VH with D31S, F54Y, R57S
# VL: B3 VL with Q27R, N31E, S52G, K93A
# notes: Human IgG1 format; also called MCSP ML2(C5-G3)
# B10: M4-3(C1)/ML2 IgG (antibody, V domains shown)
# VH: B3 VH with D31S, R57S
# VL: B3 VL
# notes: Human IgG1 format
# B11: M4-3/ML2(G3) IgG (antibody, V domains shown)
# VH: B3 VH with D31S, F54Y, R57S
# VL: B3 VL with F71Y, K93A
# notes: Human IgG1 format
# B12: M4-3/ML2 (C5) IgG (antibody, V domains shown)
# VH: B3 VH with D31S, F54Y, R57S
# VL: B3 VL with Q27R, N31E, S52G, K93E
# notes: Human IgG1 format
# B13: M4-3(A7)/ML2(G3) IgG (antibody, V domains shown)
# VH: B3 VH
# VL: B3 VL with F71Y, K93A
# notes: Human IgG1 format
# B14: M4-3(D6)/ML2 IgG (antibody, V domains shown)
# VH: B3 VH with D31S, R57K
# VL: B3 VL
# notes: Human IgG1 format
# B15: M4-3(A7)/ML2(E10) IgG (antibody, V domains shown)
# VH: B3 VH
# VL: B3 VL with Q27Y, N31G, Y87H
# notes: Human IgG1 format
# B16: M4-3(B7)/ML2 IgG (antibody, V domains shown)
# VH: B3 VH with D31S, R57I
# VL: B3 VL
# notes: Human IgG1 format
# B17: M4-3/ML2 (E10/G3) IgG (antibody, V domains shown)
# VH: B3 VH with D31S, F54Y, R57S
# VL: B3 VL with Q27Y, N31G, Y87H, K93A
# notes: Human IgG1 format; also called MCSP ML2(E10-G3)
# B18: M4-3(B8)/ML2 IgG (antibody, V domains shown)
# VH: B3 VH with D31S
# VL: B3 VL
# notes: Human IgG1 format
# Target: human MCSP on tumor cells (human, UniProt Q6UVK1 30-2322)
# Sequence (Q6UVK1 30-2322): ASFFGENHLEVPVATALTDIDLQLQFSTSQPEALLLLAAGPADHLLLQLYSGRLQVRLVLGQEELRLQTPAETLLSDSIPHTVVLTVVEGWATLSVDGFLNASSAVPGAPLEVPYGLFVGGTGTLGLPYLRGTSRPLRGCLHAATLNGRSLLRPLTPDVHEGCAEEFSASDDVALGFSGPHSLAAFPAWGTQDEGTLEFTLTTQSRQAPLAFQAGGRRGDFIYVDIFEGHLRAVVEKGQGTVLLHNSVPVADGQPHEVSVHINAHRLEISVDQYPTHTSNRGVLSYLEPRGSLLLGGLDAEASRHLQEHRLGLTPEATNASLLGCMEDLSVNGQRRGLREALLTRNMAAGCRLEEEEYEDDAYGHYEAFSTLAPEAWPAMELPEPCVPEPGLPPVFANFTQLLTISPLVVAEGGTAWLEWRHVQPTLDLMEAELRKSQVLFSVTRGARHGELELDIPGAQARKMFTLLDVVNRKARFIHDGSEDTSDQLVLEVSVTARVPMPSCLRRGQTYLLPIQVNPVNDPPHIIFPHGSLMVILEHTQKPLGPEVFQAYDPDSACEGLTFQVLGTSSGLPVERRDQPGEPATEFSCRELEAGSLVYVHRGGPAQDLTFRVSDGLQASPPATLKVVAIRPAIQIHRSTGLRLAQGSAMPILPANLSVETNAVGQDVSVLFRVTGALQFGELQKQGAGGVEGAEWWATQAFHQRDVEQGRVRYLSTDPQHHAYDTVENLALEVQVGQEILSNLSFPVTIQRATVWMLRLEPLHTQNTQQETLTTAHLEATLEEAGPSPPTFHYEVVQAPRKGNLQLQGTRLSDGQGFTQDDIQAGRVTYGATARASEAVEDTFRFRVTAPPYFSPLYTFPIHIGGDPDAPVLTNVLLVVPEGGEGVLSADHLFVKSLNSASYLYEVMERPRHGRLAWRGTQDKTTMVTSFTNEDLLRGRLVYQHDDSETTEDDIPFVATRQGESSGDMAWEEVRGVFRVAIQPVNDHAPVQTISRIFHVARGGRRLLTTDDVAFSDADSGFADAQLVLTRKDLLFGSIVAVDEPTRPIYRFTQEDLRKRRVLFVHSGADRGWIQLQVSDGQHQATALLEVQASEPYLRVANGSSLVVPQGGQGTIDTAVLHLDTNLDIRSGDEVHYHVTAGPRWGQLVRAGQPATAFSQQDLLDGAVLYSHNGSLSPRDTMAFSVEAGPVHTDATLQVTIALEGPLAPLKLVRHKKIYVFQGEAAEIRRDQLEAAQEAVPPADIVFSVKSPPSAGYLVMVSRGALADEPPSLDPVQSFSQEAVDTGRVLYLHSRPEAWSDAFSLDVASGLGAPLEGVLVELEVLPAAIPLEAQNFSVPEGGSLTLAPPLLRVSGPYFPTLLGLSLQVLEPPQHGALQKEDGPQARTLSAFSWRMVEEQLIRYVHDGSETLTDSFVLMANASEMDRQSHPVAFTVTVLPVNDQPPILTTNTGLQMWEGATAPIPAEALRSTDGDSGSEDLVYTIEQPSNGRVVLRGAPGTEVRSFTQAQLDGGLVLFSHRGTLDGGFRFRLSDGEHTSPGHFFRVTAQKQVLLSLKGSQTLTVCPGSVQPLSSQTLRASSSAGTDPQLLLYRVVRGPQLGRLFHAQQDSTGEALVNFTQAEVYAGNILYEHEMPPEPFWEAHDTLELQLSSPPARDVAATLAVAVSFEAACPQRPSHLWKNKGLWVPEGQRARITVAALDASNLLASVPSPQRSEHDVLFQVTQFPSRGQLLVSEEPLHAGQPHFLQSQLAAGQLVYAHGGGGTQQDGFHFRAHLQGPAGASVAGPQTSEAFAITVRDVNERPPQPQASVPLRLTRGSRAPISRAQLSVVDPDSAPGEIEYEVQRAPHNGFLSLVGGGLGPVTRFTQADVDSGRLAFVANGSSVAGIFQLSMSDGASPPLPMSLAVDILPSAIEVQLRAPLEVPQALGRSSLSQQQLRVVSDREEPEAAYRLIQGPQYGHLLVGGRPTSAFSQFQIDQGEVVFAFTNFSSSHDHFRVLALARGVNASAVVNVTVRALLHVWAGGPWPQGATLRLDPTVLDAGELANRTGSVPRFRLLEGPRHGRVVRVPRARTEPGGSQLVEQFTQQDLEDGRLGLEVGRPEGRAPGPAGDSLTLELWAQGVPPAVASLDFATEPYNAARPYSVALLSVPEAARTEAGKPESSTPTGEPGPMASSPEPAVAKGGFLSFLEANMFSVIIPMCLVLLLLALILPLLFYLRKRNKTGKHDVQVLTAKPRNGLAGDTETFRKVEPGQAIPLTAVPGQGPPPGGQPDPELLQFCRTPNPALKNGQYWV
# Test: cell-based or functional assay
row,Binder,"EC50 of killing (LDH release) of MV-3 cells, human PBMCs, E:T 10:1, ~24 h [nM]"
1,B1,0.0254
2,B2,0.0898

# Target: human CD3 on T cells (human, UniProt P07766 23-126)
# Sequence (P07766 23-126 limits assumed): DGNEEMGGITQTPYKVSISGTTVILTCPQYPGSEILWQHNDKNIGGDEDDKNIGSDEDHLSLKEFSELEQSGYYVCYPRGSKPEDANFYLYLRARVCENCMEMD
# Test: cell-based or functional assay
row,Binder,"EC50 of killing (LDH release) of MV-3 cells, human PBMCs, E:T 10:1, ~24 h [nM]"
1,B1,0.0254
2,B2,0.0898

# Target: T1, human MCSP(D3 domain)-avi-his
# Test: ratio of ProteOn IgG KD against parental M4-3/ML2 IgG
# Method: (§1) Briefly, carboxymethylated dextran biosensor chips (CM5, GE Healthcare) were activated with N-ethyl-N′-(3-dimethylaminopropyl)-carbodiimide hydrochloride (EDC) and N-hydroxysuccinimide (NHS) according to the supplier's instructions. Anti-human F(ab′)2 fragment specific capture antibody was diluted with 10 mM sodium acetate, pH 5.0 at 50 μg/ml before injection at a flow rate of 10 μl/minute to achieve approximately up to 10.000 response units (RU) of coupled capture antibody. Following the injection of the capture antibody, 1 M ethanolamine is injected to block unreacted groups. For kinetics measurements, Fabs from bacterial supernatant or purified Fabs were injected at a flow rate of 10 ul/minute for 300 s and a dissociation of 300 s for capture baseline stabilization. Capture levels were in the range of 100-500 RU. […] The surface of the sensorchip was regenerated by injection of glycine pH 1.5 for 30 s at 90 ul/min followed by injection of NaOH for 20 s at the same flow rate. Association rates (kon) and dissociation rates (koff) were calculated using a simple one-to-one Langmuir binding model (ProteOn XPR36 Evaluation Software or Scrubber software (BioLogic)) by simultaneously fitting the association and dissociation sensorgrams. The equilibrium dissociation constant (KD) was calculated as the ratio koff/kon.
# (§2) Method exactly as described for the Fab fragments, just purified IgG from mammalian production were used.
row,Binder,"fold increase over parent (IgG KD, comparative binding affinity) [fold]"
1,B3,2.5
2,B4,28.6
3,B5,4
4,B6,10
5,B7,2
6,B8,28.6
7,B9,2.9
8,B10,2.2
9,B11,6.7
10,B12,5
11,B13,28.6
12,B14,5
13,B15,6.7
14,B16,4
15,B17,5
16,B18,2.2

# Target: T2, cynomolgus MCSP D3 (cynomolgus)
# T2 construct: domain: D3; also called Cyno MCSP; cynomolgus homologue
# Test: as above
# Method: as §1, §2
row,Binder,"fold increase over parent (IgG KD, comparative binding affinity) [fold]"
1,B3,2
2,B4,10
3,B5,3.3
4,B6,6.7
5,B7,1
6,B8,10
7,B9,2
8,B10,2.5
9,B11,3.3
10,B12,2
11,B13,10
12,B14,2
13,B15,2.9
14,B16,2.9
15,B17,2.2
16,B18,2
